Reference: patent US5536822A, “γ-phosphate linked adenosine 5' triphosphate sepharose” (University of Virginia Alumni Patents Foundation, priority 1994, dated 1996)

Key:
[1] = tested on: Nc1ncnc2c1ncn2[C@@H]1O[C@H](COP(=O)(O)OP(=O)(O)OP(=O)(O)O)[C@@H](O)[C@H]1O; assay: purified protein, by the assay type; details: other: cyclic A kinase; pH 7.4
Excerpt: However, since the Km for ATP varied for each protein kinase tested, for comparative purposes it was convenient to determine the Ki /Km quotient (Table 1).

[2] = tested on: T1, Nc1ncnc2c1ncn2[C@@H]1O[C@H](COP(=O)(O)OP(=O)(O)OP(=O)(O)O)[C@@H](O)[C@H]1O; assay: Inhibition constant of the ATP derivative / Km for ATP, p60^c-src assay (peptide substrate); format: biochemical; details: other: p60^c-src; pH 7.4
T1 construct: Department of Microbiology, University of Virginia (obtained from; not a purchase)
Excerpt: [γ-^32 P] ATP was synthesized according to the procedure set forth in Johnson et al., Advances in Cyclic Nucleotide Research, 10:135-167 (1979). The catalytic subunit of cyclic-AMP-dependent protein kinase was purchased from Promega. p60^c-arc was obtained from the Department of Microbiology, University of Virginia. Recombinant p42^mapk was purified as described in Haystead et al., (1992) FEBS Lett., 306:17-22. STE7 antibody was obtained from the University of Vancouver, Canada.
The 42-kDa MAP kinase (p42^mapk) and MAPKK were assayed as described previously (Haystead et al. (1992) FEBS. Lett., 306:17-22). The cyclic-A kinase assays (30 μl) included 1 μg cyclic-A kinase, 2 mM Kemptide, 50 mM Hepes, pH 7.4, 1 mM dithiothreitol, 200 μM ATP, 5 mM MgCl2. […]
In order to assess the effectiveness of adenosine 5'-(γ-4-aminophenyl)triphosphate as an affinity ligand for protein kinases, the inhibition constants (Ki) of the derivative were determined for four different protein kinases, namely, p42^mapk, cyclic-A kinase, MAPKK and p60^c-arc (Table 1). […] This also facilitated comparisons for the relative binding constants determined with other ATP analogs (Flockhart et al. (1984) Eur. J. Biochem., 140:289-295; Hoppe et al. (1972) Eur. J. Biochem., 80:369-372; Taylor et al. (1990) Peptides and Protein Phosphorylation (Kemp et al.) pp 2-32, CRC Press).

Row | Substance | Km [1] [µM] | Km [2] [µM]
1 | Cyclic A kinase (Bos taurus) | 7.1 ± 0.51 | –
2 | p60^c-src (Homo sapiens) | – | 6.2 ± 1.30
